Laboratory results published in publication PMC5813253.

Legend:
[1] = target: TssK (V. cholerae (endogenous)); assay: cryo-EM structure
[2] = target: VgrG trimer of the central spike (V. cholerae (endogenous)); assay: cryo-EM structure

Row | Substance | stoichiometry N [1] | stoichiometry N [2]
1 | TssK (natural protein) | 3 | 
2 | VgrG trimer of the central spike |  | 3
